Each sequence was assayed against EPHB1 (UniProt P54762) (assay: phosphorylation enrichment, bacterial display (enrichment ratio); higher = better substrate or ligand; peptides without Tyr show the background).
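Further: 11-residue human phosphosite peptides and single-mutation variants displayed on the E. coli surface, counted by deep sequencing, each peptide's frequency after selection divided by its frequency in the unselected input library; frequency after pTyr selection over input frequency; kinase dosed for 20-30% of maximal phosphorylation in three min.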

Sequence of EPHB1 (P54762 whole entry, looked up): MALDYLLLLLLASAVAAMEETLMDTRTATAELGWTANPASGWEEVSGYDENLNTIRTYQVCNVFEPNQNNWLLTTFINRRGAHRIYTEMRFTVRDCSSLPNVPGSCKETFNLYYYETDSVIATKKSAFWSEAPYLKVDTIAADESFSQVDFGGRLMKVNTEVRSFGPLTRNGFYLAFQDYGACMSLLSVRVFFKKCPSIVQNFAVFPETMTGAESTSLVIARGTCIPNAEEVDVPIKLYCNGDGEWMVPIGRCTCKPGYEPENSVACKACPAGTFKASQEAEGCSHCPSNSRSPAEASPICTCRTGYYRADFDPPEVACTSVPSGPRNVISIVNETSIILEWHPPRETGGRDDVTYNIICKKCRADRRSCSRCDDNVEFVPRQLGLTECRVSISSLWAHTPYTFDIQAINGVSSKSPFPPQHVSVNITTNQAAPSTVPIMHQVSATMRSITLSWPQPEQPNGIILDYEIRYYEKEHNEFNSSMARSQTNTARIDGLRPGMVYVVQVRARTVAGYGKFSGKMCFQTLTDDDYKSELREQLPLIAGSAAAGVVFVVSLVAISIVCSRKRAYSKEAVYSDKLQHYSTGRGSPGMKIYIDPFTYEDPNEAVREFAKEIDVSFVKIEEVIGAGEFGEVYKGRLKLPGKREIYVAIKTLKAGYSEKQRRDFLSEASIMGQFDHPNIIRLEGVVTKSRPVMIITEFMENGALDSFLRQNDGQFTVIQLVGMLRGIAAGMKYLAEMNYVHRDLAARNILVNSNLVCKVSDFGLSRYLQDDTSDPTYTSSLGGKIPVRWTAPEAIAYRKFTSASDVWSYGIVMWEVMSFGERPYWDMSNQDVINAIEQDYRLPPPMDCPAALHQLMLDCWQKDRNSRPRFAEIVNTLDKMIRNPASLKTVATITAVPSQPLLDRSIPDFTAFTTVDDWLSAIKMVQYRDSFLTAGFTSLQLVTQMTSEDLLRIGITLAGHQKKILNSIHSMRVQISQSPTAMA

Sequence	phosphorylation enrichment
VHKKGYNKLNQ [ZNF676_Y98_E96K]	0.48
PVGDAYKKKGL [NMNAT1_Y55]	0.501
CLGNQYVNVMN [SLC3A1_Y461_R456C]	0.588
FPCSVYVPDEW [INSR_Y1011]	0.707
IFCIQYNIRAF [MYH4_Y820]	0.821
CASQLYPRHKH [DCTN4_Y263]	0.43
KNKNRYKNILP [PTPN11_Y279]	0.601
ELTSKYRGGGG [HBA1_Y141_V136E]	0.412
LNTFHYAGVSA [POLR2A_Y1109]	0.434
PARLEYCENEK [IRS1_Y46_Y47C]	0.947
YDEYRYRSFIK [CFTR_Y517_V520F]	0.54
CTTIHYNYMCD [TP53_Y234_N239D]	0.647
HRGHLYLAIEY [TEK_Y899_Y897H]	1.08
NKEPRYQEDPP [TJP2_Y479]	0.525
PSQRRYLYYYS [PTEN_Y174_V175L]	0.616
DGQSVYKLTDF [TBK1_Y153]	0.426
TIMTDYNPNYC [ALK_Y1092]	0.999

Sequence	phosphorylation enrichment
MALDIYRASFF [ALK_Y1278_R1275L_YF]	0.599
LSDVIYVILRK [PMP22_Y153_G150D]	0.57
ALCHFYKLNII [ETV6_Y402_R399C_YF]	0.607
REDIFYTSKLW [AKR1C2_Y81]	0.978
LGMSQYFRLFN [CPT2_Y217_D213G]	0.601
MPQNEYIELHC [NSA2_Y6_R11C]	1.2
EKEKKYMLPLD [DNM2_Y563]	0.526
FTFDPYSEEEP [IL2RB_Y387_D391E_YF]	0.874
PIQLFYTRRNT [GHR_Y86]	0.766
QMVDMYASSFM [AVPR2_Y124_G122D_YF]	0.992
DAVAVYHGKIS [SH2D1A_Y7]	0.395
RFLRGYQQDAF [HLA-A_Y137_R138Q_YF]	0.796
FLNSIYKSRDE [ROS1_Y2227]	0.365
ALPVFYAATIA [SLC20A2_Y187]	0.905
FPDFVYKRIKA [DPYSL2_Y479]	0.421
ETKKQYNSFTF [TMED3_Y85_D86N_YF]	0.442

What follows are sequences tested against FGFR1 (UniProt P11362) in the same assay as above.
Sequence of FGFR1 (P11362 whole entry, looked up): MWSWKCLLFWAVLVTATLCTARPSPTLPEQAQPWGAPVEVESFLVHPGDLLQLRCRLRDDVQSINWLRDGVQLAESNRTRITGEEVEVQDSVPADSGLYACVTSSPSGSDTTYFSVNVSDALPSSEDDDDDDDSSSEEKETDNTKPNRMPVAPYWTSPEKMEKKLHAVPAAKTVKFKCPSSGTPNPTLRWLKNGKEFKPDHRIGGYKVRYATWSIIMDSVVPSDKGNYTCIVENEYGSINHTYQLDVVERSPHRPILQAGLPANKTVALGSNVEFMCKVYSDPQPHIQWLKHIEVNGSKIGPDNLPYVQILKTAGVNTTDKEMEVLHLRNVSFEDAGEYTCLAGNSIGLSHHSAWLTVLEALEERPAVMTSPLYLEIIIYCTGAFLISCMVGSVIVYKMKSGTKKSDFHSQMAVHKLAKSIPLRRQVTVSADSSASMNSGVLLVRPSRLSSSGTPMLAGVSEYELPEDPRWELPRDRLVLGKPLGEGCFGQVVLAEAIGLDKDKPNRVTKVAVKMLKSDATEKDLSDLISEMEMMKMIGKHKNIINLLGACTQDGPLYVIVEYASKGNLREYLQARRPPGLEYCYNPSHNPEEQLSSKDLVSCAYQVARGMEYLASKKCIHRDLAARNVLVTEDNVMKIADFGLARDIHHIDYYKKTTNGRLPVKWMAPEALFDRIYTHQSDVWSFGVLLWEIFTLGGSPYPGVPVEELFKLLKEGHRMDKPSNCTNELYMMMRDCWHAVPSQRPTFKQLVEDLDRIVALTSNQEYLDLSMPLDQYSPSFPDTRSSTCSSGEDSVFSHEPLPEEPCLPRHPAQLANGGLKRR

Sequence	phosphorylation enrichment
VHKKGYNKLNQ [ZNF676_Y98_E96K]	0.494
PVGDAYKKKGL [NMNAT1_Y55]	0.651
CLGNQYVNVMN [SLC3A1_Y461_R456C]	0.567
FPCSVYVPDEW [INSR_Y1011]	0.623
IFCIQYNIRAF [MYH4_Y820]	0.525
CASQLYPRHKH [DCTN4_Y263]	0.533
KNKNRYKNILP [PTPN11_Y279]	0.598
ELTSKYRGGGG [HBA1_Y141_V136E]	0.333
LNTFHYAGVSA [POLR2A_Y1109]	0.407
PARLEYCENEK [IRS1_Y46_Y47C]	0.809
YDEYRYRSFIK [CFTR_Y517_V520F]	0.495
CTTIHYNYMCD [TP53_Y234_N239D]	0.57
HRGHLYLAIEY [TEK_Y899_Y897H]	0.942
NKEPRYQEDPP [TJP2_Y479]	0.625
PSQRRYLYYYS [PTEN_Y174_V175L]	0.873
DGQSVYKLTDF [TBK1_Y153]	0.434
TIMTDYNPNYC [ALK_Y1092]	0.715

Sequence	phosphorylation enrichment
MALDIYRASFF [ALK_Y1278_R1275L_YF]	0.558
LSDVIYVILRK [PMP22_Y153_G150D]	0.456
ALCHFYKLNII [ETV6_Y402_R399C_YF]	0.479
REDIFYTSKLW [AKR1C2_Y81]	0.592
LGMSQYFRLFN [CPT2_Y217_D213G]	0.704
MPQNEYIELHC [NSA2_Y6_R11C]	3.95
EKEKKYMLPLD [DNM2_Y563]	0.412
FTFDPYSEEEP [IL2RB_Y387_D391E_YF]	0.602
PIQLFYTRRNT [GHR_Y86]	0.982
QMVDMYASSFM [AVPR2_Y124_G122D_YF]	0.779
DAVAVYHGKIS [SH2D1A_Y7]	0.388
RFLRGYQQDAF [HLA-A_Y137_R138Q_YF]	0.803
FLNSIYKSRDE [ROS1_Y2227]	0.439
ALPVFYAATIA [SLC20A2_Y187]	0.394
FPDFVYKRIKA [DPYSL2_Y479]	0.495
ETKKQYNSFTF [TMED3_Y85_D86N_YF]	0.366
